Ends that are not written are not given here.
How the values were obtained:
[1] = target: T1, GRP58 (human, UniProt P30101 25-505, limits assumed); assay: human protein microarray (Protoarray), fluorescence intensity
T1 construct: GST fusion adsorbed on a nitrocellulose slide
T1 sequence (looked up): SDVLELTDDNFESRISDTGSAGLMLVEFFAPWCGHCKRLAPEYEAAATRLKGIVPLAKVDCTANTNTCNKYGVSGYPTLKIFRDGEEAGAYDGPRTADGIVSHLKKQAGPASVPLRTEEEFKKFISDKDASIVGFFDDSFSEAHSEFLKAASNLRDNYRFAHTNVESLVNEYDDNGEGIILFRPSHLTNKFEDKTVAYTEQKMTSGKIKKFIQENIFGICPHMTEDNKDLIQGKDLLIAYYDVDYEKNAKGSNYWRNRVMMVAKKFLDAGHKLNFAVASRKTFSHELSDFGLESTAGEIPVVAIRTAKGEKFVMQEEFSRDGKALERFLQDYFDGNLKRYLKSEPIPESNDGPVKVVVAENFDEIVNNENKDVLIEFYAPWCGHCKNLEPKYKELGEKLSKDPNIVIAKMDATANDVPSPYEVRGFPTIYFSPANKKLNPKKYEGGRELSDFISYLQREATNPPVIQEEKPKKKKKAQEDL
Procedure: (§1) The prescribed cover slip was placed over the array and adjusted to remove air bubbles. The array was incubated in a 50 ml conical tube, printed side up, for 1.5 hours at 4 C without shaking. The array was then removed from the conical tube inserted diagonally into the array chamber, kept on ice. 8 ml probing buffer was added to the chamber wall. The cover slip was removed and the array was incubated in probing buffer for 1 minute on ice. The probing buffer was decanted and drained. Two further washings were performed adding 8 ml probing buffer, incubating on ice for 1 minute, and decanting and draining. 5 nM fluorescently labeled streptavidin diluted in 6 ml probing buffer was incubated on the array for 30 minutes on ice in the dark, after which the solution was decanted and drained. Three wash steps were performed, each by adding 8 ml probing buffer, incubating for 1 minute on ice, decanting, and draining. The array was removed from the chamber, centrifuged at 800×g for 5 minutes at room temperature. The array was dried in the dark for 60 minutes at room temperature, after which it was scanned using a fluorescent microarray scanner and data was taken and analyzed.

[2] = target: T2, Fbox-21 (human, UniProt O94952 1-628); assay: as above
T2 construct: GST fusion adsorbed on a nitrocellulose slide
T2 sequence (looked up): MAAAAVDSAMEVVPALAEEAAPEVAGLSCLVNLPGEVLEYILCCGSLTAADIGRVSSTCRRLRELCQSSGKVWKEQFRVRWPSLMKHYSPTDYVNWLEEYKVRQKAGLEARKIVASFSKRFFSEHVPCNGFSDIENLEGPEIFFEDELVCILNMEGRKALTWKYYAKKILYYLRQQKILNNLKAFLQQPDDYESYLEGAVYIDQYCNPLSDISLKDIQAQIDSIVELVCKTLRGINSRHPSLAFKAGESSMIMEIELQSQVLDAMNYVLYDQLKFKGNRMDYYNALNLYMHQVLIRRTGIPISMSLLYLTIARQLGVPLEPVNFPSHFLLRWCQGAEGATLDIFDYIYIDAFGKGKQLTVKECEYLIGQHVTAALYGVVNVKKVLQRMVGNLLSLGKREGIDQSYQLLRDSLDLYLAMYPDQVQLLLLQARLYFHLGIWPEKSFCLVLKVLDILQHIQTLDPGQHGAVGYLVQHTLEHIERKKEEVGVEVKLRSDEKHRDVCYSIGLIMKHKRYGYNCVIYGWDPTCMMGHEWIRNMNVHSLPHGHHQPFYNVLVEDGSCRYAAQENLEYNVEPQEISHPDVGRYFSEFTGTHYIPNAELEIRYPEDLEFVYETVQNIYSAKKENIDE
Procedure: as §1

[3] = target: T3, ANXA1 (human, UniProt P04083); assay: Invitrogen ProtoArray Human Protein Microarray v4.0; biotinylated synbody, fluorescently labelled streptavidin; fluorescence intensity above background
T3 construct: GST fusion on the array
T3 sequence (looked up): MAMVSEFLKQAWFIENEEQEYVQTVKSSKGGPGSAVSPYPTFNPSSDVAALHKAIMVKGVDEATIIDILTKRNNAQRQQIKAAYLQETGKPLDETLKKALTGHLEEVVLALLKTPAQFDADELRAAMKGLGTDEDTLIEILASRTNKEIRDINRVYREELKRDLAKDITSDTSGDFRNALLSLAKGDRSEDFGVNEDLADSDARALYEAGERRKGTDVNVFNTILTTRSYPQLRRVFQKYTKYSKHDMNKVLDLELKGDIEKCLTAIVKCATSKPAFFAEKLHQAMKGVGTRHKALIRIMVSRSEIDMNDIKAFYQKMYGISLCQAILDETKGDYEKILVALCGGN
Procedure: as §1

[4] = target: T4, CHAF1B (human, UniProt Q13112); assay: as above
T4 construct: GST fusion on the array
Procedure: as §1

[5] = target: T5, MCCC1 (human, UniProt Q96RQ3); assay: as above
T5 construct: GST fusion on the array
T5 sequence (looked up): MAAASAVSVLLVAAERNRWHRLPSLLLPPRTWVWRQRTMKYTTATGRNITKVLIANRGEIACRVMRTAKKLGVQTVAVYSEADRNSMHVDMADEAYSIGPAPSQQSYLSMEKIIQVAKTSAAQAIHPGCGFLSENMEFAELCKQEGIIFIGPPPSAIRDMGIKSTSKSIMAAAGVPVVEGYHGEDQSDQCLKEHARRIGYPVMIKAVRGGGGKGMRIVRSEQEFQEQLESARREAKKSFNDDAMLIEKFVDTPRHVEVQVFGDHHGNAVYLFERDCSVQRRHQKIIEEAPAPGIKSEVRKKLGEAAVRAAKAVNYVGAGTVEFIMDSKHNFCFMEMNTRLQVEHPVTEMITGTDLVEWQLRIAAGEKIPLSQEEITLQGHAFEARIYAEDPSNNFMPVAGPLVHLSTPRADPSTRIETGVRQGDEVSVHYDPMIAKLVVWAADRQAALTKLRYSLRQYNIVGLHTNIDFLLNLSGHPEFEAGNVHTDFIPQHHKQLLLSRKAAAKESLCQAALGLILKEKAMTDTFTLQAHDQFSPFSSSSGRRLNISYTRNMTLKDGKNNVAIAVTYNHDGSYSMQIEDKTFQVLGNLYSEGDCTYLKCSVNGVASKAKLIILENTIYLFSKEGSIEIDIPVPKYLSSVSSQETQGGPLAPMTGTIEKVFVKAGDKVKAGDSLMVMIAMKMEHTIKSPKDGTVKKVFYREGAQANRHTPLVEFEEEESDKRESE
Procedure: as §1

[6] = target: T6, HTN1 (human, UniProt P15515, limits assumed); assay: as above
T6 construct: GST fusion on the array
T6 chain (looked up): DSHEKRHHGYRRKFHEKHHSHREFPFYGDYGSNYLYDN
Procedure: as §1

[7] = target: T7, ACTC (human, UniProt P68032); assay: as above
T7 construct: GST fusion on the array
Procedure: as §1

[8] = target: T8, CLEC1 (human, UniProt Q8NC01); assay: as above
T8 construct: GST fusion on the array
T8 sequence (looked up): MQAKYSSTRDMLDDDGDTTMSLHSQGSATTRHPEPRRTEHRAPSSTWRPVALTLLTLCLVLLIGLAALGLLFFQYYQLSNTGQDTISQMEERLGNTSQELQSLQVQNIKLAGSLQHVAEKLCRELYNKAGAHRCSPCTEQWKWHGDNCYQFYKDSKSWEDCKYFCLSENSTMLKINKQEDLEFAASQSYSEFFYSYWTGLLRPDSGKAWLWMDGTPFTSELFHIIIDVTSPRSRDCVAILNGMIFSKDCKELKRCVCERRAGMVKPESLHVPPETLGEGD
Procedure: as §1

Measured: binding result

T4 sequence (Q13112 whole entry, the tested form may be a part): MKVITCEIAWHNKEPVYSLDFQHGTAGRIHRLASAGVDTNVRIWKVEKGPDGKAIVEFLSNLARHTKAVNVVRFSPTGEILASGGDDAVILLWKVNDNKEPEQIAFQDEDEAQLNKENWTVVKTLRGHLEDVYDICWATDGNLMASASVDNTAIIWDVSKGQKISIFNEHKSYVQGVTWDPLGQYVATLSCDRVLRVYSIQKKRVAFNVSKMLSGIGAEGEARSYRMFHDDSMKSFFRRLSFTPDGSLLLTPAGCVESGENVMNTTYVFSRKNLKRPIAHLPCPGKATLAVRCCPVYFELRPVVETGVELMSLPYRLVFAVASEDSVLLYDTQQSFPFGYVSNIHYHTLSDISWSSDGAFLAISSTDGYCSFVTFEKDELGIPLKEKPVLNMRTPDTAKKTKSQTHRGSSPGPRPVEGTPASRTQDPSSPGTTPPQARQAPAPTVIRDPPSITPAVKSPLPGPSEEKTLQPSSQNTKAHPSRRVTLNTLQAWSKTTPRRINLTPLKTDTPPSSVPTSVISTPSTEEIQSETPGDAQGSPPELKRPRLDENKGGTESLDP

B1: SYN23-26 (designed binder)
peptide 1: AHKVVPQRQIRHAYNRYGSG
peptide 2: FRGWAHIFFGPHVIYRGGSG
modifications: also: two chains joined by their C-termini to a branching Lys (epsilon/alpha N), Lys linker followed by Cys, Cys thiol biotinylated
notes: Lysine linker followed by cysteine; the thiol of the cysteine biotinylated for the protein array; also called anti-TRF synbody
binds: [1] | [2] | [3] | [4] | [5] | [6] | [7] | [8]

Source: US20190194358A1 (ARIZONA BOARD OF REGENTS A BODY CORPORATE OF THE STATE OF …, published 2019)
